Source: patent US20050187175A1 (published 2005)

Target: the molecule itself
Assay: non-reducing SDS-PAGE of whole cell extracts of transfected HEK293T cells

B1: CPG15-2 (other)
chain: SEGPNRCDTIYQGFAECLIRLGDGMGRGGELQTVCRSWNDFHACASRVLSGCPEEAAAVWESLQQEARRAPHPDNLHILCGAPVSVRERIAGPETNQETLRATA
notes: also called mouse CPG15-2
binding result: binds
